Measurements taken from IntAct's records for PubMed 30285739.

B1: WW domain binding protein VOPP1 (Homo sapiens), Q96AW1 (parent)
chain: MRRQPAKVAALLLGLLLECTEAKKHCWYFEGLYPTYYICRSYEDCCGSRCCVRALSIQRLWYFWFLLMMGVLFCCGAGFFIRRRMYPPPLIEEPAFNVSYTRQPPNPGPGAQQPGPPYYTDPGGPGMNPVGNSMAMAFQVPPNSPQGSVACPPPPAYCNTPPPPYEQVVKAK
partner: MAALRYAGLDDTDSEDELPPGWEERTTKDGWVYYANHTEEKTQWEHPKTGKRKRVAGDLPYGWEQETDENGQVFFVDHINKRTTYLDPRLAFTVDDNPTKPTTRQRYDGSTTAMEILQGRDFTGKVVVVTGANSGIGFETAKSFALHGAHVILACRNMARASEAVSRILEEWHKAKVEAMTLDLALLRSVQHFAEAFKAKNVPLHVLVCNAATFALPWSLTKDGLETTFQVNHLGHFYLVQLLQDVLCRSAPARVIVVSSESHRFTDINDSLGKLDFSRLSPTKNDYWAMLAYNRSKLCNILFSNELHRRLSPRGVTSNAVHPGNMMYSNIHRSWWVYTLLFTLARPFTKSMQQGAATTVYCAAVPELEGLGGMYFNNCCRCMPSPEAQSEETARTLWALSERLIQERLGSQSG
B2: WW domain-containing oxidoreductase (Homo sapiens), Q9NZC7 (parent)
chain: B1 partner
partner: B1 chain

Variants of: B1
Settings: with wwox_human WWOX, Q9NZC7

Row | Variant | effect of a mutation on the interaction
1 | Y119A | with no effect
2 | Y157A | decreasing interaction strength
3 | Y165A | decreasing interaction strength

Variants of: B1
Settings: with wwox_human WWOX

Row | Variant | effect of a mutation on the interaction
4 | Y165A | disrupting interaction strength

Variants of: B2
Settings: with vopp1_human VOPP1, Q96AW1

Row | Variant | effect of a mutation on the interaction
5 | Y33R | disrupting interaction strength
